Results on one molecule are retold here after publication PMC3983030, “Ras GTPase-Like Protein MglA, a Controller of Bacterial Social-Motility in Myxobacteria, Has Evolved to Control Bacterial Predation by Bdellovibrio” (PLoS Genetics, 2014).

The target of the assay is T1, His6-tagged Bd2492 (Bd2492-His6) expressed in E. coli from plasmid pD2492N/3734 (Bdellovibrio bacteriovorus HD100, UniProt Q6MKB3 1-353).
T1 construct: Bd2492, 353 amino acid TPR protein of Bdellovibrio bacteriovorus HD100; The label Bd2492-His6 hints at a C-terminal tag and the plasmid name pD2492N at an N-terminal one; also called TPRBd; source: E. coli, heterologously co-expressed with MglA from plasmid pD2492N/3734
T1 sequence (looked up): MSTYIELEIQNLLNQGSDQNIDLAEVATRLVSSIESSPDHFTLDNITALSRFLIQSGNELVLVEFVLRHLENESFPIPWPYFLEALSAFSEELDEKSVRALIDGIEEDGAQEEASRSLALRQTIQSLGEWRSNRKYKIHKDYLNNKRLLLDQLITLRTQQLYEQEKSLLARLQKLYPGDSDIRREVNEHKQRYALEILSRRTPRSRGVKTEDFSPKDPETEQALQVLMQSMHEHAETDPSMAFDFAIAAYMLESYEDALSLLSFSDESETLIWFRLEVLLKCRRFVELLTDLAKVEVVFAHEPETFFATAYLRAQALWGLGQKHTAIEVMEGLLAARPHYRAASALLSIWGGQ
The assay can be described thus: SEC; gel filtration and SDS-PAGE of purified MglA and Bd2492-His6; data not shown. To be noted: both partners purified. For orientation: SEC sorts molecules by how far they enter the pores of the column.

B1: MglA (Bd3734) co-expressed in E. coli from plasmid pD2492N/3734 (natural protein, Bdellovibrio bacteriovorus HD100, UniProt Q6MH29 1-197, looked up)
chain: MSFINYNAKEIHCKVVYYGPSLGGKTTNIQWVYQKTAEDQKSKLVALNTDIERTLFFDFLPLNVGDIRGFKTRFHLYTVPGQVVYDASRKLILKGLDGVIFVADSQIERMDENLESLRNLERNLEQQGYDIREIPLIMQYNKRDLPNVASLAELRSALNPYNAPEIEGCASEGRGVFESLKTVSKSIINVLKGGTTL
notes: MglA (Bd3734) of Bdellovibrio bacteriovorus HD100; No tag is named on MglA in this construct; source: E. coli, heterologously co-expressed with Bd2492-His6 from plasmid pD2492N/3734
In general, stoichiometry N refers to the number of molecules, sites or subunits per partner or assembly. In the case of B1, the “stoichiometry N” value is 1.
